# Paper PMC2667502 (2009)
# Molecular target: TrkB/P75NTR complex (Mus musculus, UniProt P15209)
# Experiment: dose-response of neuronal survival in ventral midbrain cultures
# Sequence of TrkB/P75NTR complex (P15209 32-821, chain 1 of 2): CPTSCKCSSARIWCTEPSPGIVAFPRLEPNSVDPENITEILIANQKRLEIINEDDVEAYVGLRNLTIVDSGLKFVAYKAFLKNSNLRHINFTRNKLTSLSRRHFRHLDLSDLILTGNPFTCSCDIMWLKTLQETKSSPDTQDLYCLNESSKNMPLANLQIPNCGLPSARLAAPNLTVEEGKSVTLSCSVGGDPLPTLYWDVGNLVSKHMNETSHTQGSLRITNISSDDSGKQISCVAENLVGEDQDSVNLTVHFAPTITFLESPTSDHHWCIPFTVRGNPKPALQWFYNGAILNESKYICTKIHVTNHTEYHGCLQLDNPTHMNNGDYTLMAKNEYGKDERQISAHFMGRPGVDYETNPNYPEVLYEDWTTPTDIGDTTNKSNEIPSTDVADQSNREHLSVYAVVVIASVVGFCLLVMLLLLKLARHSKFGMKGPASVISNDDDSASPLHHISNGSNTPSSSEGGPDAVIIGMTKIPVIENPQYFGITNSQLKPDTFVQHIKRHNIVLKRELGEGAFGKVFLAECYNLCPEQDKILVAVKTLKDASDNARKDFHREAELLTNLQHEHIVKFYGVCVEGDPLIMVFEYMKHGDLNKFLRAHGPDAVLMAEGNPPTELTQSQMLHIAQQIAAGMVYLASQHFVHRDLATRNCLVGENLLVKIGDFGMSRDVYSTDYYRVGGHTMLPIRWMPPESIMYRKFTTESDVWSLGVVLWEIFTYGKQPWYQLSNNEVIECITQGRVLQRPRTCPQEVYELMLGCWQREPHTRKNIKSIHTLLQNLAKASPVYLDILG
# Sequence of TrkB/P75NTR complex (chain, as listed by the source, chain 2 of 2): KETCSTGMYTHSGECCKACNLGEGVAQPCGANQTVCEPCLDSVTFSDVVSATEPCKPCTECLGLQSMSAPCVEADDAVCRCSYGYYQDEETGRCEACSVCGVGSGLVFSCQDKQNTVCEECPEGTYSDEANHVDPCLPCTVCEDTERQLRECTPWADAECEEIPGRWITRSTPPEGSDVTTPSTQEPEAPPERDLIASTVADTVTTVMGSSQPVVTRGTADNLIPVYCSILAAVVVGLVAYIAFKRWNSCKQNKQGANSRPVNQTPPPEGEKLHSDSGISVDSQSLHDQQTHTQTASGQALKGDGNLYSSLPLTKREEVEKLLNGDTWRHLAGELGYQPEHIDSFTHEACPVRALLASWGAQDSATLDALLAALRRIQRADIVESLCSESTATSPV
binder,measurement,value
BDNF (protein) HSDPARRGELSVCDSISEWVTAADKKTAVDMSGGTVTVLEKVPVSKGQLKQYFYETKCNPMGYTKEGCRGIDKRHWNSQCRTTQSYVRALTMDSKKRIGWRFIRIDTSCVCTLTIKRGR,Kd,~2.5 nM
